Assays:
[1] = system: purinergic nucleotide P2Y2 receptor; experiment: CPRG assay, MMY9 cells expressing P2Y2 receptor plus Gα subunit; assay type: cell-based, human; set-up: key: weak activation insufficient to carry out curve-fitting was detected; NC: no coupling was detected
Experimental: Assay for combined FUS1-lacZ and FUS1-HIS3 Expression. In vivo assays of reporter gene induction (CPRG assays) were carried out by suspending cells to 0.02 OD600 in 200 μl SC-glucose (2%) lacking tryptophan, uracil and histidine. This medium was supplemented with agonists, and additionally 10 mM 3-aminotriazole and the β-galactosidase (lacZ) substrate chlorophenolred-β-D-galactopyranoside (CPRG; Boehringer) to a concentration of 0.1 mg/ml. To visualise the colour change reaction, the medium was buffered to pH 7 with 0.1 M sodium phosphate. The assay was conducted in a 96-well microtitre plate format. Plates were incubated for 24 hours without agitation, and absorbance at 570 nm was determined using a Victor microtitre plate reader (Wallac). EC50 values (+/−standard error) were estimated by curve-fitting, using the Robosage software package.
This experiment illustrates that, for certain receptors, the efficiency of coupling to the yeast pheromone response pathway can be enhanced by creating chimeras between yeast and mammalian Gα subunits. […] Agonist-dependent activation of FUS1-lacZ was determined by incubating cells in medium supplemented with the chromogenic, cell-permeant β-galacosidase (lacZ) substrate, chlorophenolred-β-D-galactopyranoside (CPRG; Boehringer Mannheim). […]

[2] = molecular target: T1, somatostatin SST2 receptor (Homo sapiens, UniProt P30874); experiment: Reverse halo assay for FUS1-HIS3 expression, MMY9 cells, SST2; assay type: cell-based; conditions: MMY9 cells with pRS314-GPA1 and SST2 receptor, 3 nmol somatostatin-14
T1 construct: expressed in transfected cells; host or cells: Saccharomyces cerevisiae strains MMY9 and MMY11, plasmid pFL61-SST2, PGK1 promoter
T1 sequence (P30874 whole entry): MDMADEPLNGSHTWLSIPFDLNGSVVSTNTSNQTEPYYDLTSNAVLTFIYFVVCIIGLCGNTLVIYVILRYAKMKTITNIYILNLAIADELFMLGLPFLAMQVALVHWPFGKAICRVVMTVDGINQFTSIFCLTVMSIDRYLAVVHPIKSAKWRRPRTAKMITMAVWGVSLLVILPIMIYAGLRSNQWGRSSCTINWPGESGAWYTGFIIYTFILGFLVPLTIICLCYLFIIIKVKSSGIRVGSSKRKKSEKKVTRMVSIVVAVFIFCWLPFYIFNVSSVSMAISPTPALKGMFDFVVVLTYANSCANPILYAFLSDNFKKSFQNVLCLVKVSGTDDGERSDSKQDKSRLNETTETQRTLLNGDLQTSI
Experimental: Assay for FUS1-HIS3 Expression. Reverse halo assays were carried out by growing MMY9 cells to early stationary phase (OD600≈4) in liquid SC-glucose (2%) medium lacking tryptophan and uracil. A uniform layer of cells (5×10^7) was plated to 22.5 cm by 22.5 cm bioassay dishes (Nunc) in 100 ml SC-glucose agar (1%) equilibrated to 50° C. This medium lacked tryptophan, uracil and histidine, and was supplemented with 10 mM 3-aminotriazole, and buffered to pH 7.0 with 0.1M sodium phosphate. Antibiotic discs were placed on the solidified agar, and a volume of agonist solution (1-5 μl) was applied to each disc. Plates were incubated at 30° C. for 3 days.
The four receptors were: the melatonin ML1B receptor, the serotonin 5HT1A receptor, the somatostatin SST2 receptor and the purinergic nucleotide receptor, P2Y2. […] Activation of the pheromone response pathway was monitored with two integrated reporter genes: […] allowing a growth readout in medium lacking histidine, and FUS1-lacZ allowing a β-galactosidase readout. […] Agonist-dependent activation of FUS1-HIS3 was determined by reverse halo assay in which agonists were applied to the filter discs in the arrangement shown in panel A, in quantities as follows: 3 nmol of somatostatin-14 (S-14); 40 nmol of melatonin (Mel); 3 nmol of α-factor; 100 nmol of UTP; 40 nmol of serotonin (5-HT). […]

Chain of purinergic nucleotide P2Y2 receptor (P41231 1-347 limits assumed): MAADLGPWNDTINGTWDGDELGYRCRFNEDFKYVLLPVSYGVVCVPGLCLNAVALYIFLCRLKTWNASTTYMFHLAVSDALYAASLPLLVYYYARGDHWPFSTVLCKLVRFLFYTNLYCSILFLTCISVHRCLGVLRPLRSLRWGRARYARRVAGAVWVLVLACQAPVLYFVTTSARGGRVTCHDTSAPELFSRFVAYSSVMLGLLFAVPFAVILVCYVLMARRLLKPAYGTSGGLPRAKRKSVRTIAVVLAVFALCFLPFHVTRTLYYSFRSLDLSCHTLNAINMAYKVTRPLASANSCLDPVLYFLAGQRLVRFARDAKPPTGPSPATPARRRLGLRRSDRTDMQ

B1: Gpa1p: endogenous yeast Gα subunit, product of the GPA1 gene (protein, UniProt P08539 2-472, looked up)
Guanine nucleotide-binding …: GCTVSTQTIGDESDPFLQNKRANDVIEQSLQLEKQRDKNEIKLLLLGAGESGKSTVLKQLKLLHQGGFSHQERLQYAQVIWADAIQSMKILIIQARKLGIQLDCDDPINNKDLFACKRILLKAKALDYINASVAGGSDFLNDYVLKYSERYETRRRVQSTGRAKAAFDEDGNISNVKSDTDRDAETVTQNEDADRNNSSRINLQDICKDLNQEGDDQMFVRKTSREIQGQNRRNLIHEDIAKAIKQLWNNDKGIKQCFARSNEFQLEGSAAYYFDNIEKFASPNYVCTDEDILKGRIKTTGITETEFNIGSSKFKVLDAGGQRSERKKWIHCFEGITAVLFVLAMSEYDQMLFEDERVNRMHESIMLFDTLLNSKWFKDTPFILFLNKIDLFEEKVKSMPIRKYFPDYQGRVGDAEAGLKYFEKIFLSLNKTNKPIYVKRTCATDTQTMKFVLSAVTDLIIQQNLKKIGII
- coupling class where no EC50 could be fitted [1]: weak
- agonist-dependent activation of FUS1-HIS3 (halo of cell growth) [2]: responded to somatostatin

From patent US6509447B1, “G protein chimeras and methods of screening compounds” (Glaxo Welcome Inc., priority 1997, dated 2003)
